Assay results: patent EP1469082A1 (Boehringer Ingelheim International GmbH, dated 2004)

B1: CDH1 C-terminal peptide CFSKTRSTKESVSVLNLFTRIR (peptide)
peptide: CFSKTRSTKESVSVLNLFTRIR
notes: Synthetic peptide; also called CDH1 C-terminus; CDH1 peptide
B2: CDC20 C-terminal peptide CLRREREKASTSKSSLIHQGIR (peptide)
peptide: CLRREREKASTSKSSLIHQGIR
notes: Synthetic peptide; also called CDC20 C-terminus; CDC20 peptide

Legend:
[1] = target: T1, recombinant HisHA-tagged APC3 (human, UniProt P30260 1-824); assay: peptide matrix pull-down from insect cell lysate, western blot
T1 construct: Expressed from baculovirus in Sf9 or Hi5 cells and used as insect cell lysate; also called APC3/CDC27; not shown: HisHA tag
T1 sequence (P30260 whole entry): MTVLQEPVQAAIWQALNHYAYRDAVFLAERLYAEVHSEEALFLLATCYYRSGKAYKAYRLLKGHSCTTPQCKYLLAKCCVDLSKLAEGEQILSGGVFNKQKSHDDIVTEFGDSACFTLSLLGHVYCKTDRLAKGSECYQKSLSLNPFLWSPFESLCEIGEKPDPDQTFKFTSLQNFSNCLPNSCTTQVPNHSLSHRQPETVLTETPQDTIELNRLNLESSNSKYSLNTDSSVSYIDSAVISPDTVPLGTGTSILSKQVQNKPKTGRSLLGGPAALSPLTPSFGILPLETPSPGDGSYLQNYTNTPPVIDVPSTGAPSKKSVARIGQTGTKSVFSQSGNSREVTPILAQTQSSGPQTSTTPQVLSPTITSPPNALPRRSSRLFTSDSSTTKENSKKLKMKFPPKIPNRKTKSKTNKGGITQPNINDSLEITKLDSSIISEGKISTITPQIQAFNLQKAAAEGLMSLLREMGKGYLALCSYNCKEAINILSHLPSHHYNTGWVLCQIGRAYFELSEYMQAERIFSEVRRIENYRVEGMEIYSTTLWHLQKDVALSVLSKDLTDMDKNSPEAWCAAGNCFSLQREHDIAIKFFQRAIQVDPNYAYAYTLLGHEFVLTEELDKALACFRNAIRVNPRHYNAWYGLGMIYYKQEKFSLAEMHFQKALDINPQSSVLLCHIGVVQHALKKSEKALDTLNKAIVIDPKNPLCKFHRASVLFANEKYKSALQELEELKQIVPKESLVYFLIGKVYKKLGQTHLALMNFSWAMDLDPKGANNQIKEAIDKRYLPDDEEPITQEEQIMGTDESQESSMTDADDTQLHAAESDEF

[2] = target: T2, holo-APC (Anaphase Promoting Complex / cyclosome) from HeLa cells (human, UniProt Q9H1A4 1-1944; Q9UJX6 1-822; P30260 1-824; Q9UJX5 1-808; Q9UJX4 1-755; Q13042 …); assay: peptide matrix pull-down from APC-containing fractions, western blot
T2 construct: Native multisubunit complex with 11 known subunits; It carries substoichiometric amounts of endogenous CDH1; also called immunopurified APC; APC-IPs

[3] = target: T3, recombinant HisHA-tagged APC5 (UniProt Q9UJX4 1-755); assay: peptide matrix pull-down from insect cell lysate, western blot
T3 construct: Expressed from baculovirus and used as insect cell lysate; not shown: HisHA tag
T3 sequence (Q9UJX4 whole entry): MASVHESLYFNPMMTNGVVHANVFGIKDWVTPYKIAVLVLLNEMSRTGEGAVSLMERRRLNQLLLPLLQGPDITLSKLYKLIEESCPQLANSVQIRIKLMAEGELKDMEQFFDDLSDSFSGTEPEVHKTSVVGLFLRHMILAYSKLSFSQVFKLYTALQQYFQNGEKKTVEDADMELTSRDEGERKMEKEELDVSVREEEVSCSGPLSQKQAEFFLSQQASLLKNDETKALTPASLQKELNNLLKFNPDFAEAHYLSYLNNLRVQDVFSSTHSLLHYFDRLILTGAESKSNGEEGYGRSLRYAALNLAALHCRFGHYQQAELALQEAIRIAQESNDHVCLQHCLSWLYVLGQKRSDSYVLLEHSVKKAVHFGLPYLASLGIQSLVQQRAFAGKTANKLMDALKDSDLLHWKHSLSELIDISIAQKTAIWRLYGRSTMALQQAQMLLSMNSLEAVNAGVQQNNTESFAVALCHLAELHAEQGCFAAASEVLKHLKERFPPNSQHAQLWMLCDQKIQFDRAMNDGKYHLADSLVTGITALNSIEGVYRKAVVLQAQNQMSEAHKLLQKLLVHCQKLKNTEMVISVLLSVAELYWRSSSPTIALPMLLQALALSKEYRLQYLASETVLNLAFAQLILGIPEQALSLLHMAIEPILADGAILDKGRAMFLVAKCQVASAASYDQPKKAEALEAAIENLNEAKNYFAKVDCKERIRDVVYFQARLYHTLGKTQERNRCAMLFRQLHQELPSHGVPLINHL

[4] = target: T4, recombinant HisHA-tagged APC8 (UniProt Q9UJX2 1-597); assay: as above
T4 construct: Expressed from baculovirus and used as insect cell lysate; also called APC8/CDC23; not shown: HisHA tag
T4 sequence (Q9UJX2 whole entry): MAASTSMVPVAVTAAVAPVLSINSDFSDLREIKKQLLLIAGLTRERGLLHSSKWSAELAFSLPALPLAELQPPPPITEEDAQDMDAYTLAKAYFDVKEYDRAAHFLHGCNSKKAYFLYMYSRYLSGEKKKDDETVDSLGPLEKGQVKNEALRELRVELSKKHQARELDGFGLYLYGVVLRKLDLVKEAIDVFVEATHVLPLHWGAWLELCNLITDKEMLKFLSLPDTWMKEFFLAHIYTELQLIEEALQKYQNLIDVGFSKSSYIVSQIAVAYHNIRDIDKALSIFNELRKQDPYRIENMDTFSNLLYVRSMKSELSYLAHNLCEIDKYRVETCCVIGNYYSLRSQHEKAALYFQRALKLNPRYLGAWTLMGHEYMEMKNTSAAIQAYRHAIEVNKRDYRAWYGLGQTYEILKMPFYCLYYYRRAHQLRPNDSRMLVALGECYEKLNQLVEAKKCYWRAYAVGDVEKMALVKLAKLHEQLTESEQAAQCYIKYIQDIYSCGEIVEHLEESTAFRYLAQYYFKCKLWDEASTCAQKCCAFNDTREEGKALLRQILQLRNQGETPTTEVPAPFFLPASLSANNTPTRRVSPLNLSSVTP

[5] = target: T5, APC7 C-terminal part (amino acids 298 to 565) comprising the block of TPRs (human, UniProt Q9UJX3 298-565, limits assumed); assay: peptide binding assay with recombinant APC7 fragments
T5 construct: Recombinantly expressed fragment; also called APC7 TPR domain; APC7 C-terminal fragment
T5 sequence (Q9UJX3 298-565 limits assumed): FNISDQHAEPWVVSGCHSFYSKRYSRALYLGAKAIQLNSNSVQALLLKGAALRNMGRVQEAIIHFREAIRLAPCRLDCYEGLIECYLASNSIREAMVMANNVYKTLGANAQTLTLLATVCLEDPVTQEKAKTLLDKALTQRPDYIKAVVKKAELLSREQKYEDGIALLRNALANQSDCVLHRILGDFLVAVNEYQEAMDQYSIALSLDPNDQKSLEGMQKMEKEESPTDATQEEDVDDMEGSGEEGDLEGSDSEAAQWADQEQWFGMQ

[6] = target: T6, APC7 fragment containing the N-terminal 297 amino acids (human, UniProt Q9UJX3 1-297, limits assumed); assay: as above
T6 construct: Recombinantly expressed fragment; also called APC7 N-terminal fragment
T6 sequence (Q9UJX3 1-297 limits assumed): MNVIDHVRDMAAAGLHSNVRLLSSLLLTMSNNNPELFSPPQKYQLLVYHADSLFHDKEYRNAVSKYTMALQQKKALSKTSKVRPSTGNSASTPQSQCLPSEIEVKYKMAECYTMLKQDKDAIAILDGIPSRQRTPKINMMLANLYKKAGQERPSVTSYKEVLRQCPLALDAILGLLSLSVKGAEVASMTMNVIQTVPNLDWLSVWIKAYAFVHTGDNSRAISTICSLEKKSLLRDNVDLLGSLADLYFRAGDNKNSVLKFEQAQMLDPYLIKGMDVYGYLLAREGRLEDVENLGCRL

[7] = target: T7, native CDC26 from late-eluting Q column fractions of HeLa extract (human, UniProt Q8NHZ8 1-85); assay: peptide matrix pull-down from late-eluting Q column fractions, western blot
T7 construct: Endogenous protein in anion exchange fractions
T7 sequence (Q8NHZ8 whole entry): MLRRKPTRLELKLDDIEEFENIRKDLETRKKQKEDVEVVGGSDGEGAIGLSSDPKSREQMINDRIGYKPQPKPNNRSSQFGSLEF

Binder	binding result [1]	binding result [2]	binding result [3]	binding result [4]	binding result [5]	binding result [6]	binding result [7]
CAVWSLSSCKPGFGVD [control peptide CAVWSLSSCKPGFGVD]	no binding	no binding	–	–	–	–	–
B1	–	–	no binding	no binding	binds	no binding	no binding
B2	–	–	no binding	no binding	binds	–	–
